From the domain aggregation screens of Martell et al. (2025)

Assay: soluble fraction after stress (log2 fold change); higher = more stays soluble; pooled small domains, quantitative proteomics
Details: stress: pH 4
Method in brief: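 With high-throughput quantitative proteomics, pooled custom libraries of small protein domains were measured after pH 4 stress. Each domain's soluble amount after the stress gives a fold change taken as aggregation propensity. Higher log2 values mean more of the domain stayed soluble.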

| Sequence | soluble fraction (log2) |
| --- | --- |
| HMAGQWQQDQNGWKYKTDNGDHMKNTWYQDSDSRWYYFGPDGYMKSSTMTPDGYVVGSDGAWIE | -1.63 |
| HMKLSIEDLAAELIRKIEAGDIGNEQGKMPSERELLAIYPVSRYTLRQALNKLSKMGWIYQMQGRGSYIRF | -0.83 |
| HMRFANGHLIWDTIIELRNAERRINRRALADLTGLKPGVVDDHVERWIEKDQLRRAGNGELEVV | -0.24 |
| HMDKAALGQKLRQARLDKGYTQQSLSEKADIGEVYLSEIERGLKMPSMNLFIKLITALDISADYILR | -1 |
| HMNEISFYPNPAKESLTVKGLSEITSYSISDINGKLIQYGTTFDRINLEKLTKGFYFLTIGNTISKKLIV | -0.0595 |
| HMEDEFNQIASQKNVPSFLGKGKKEVINIAKKNKIKINLSGNGYVKRQIPAPGEVISHLDEVTIFLEPG | -0.179 |
| HMTDLDDFAARLKTLTDGRASTPRLRDGVMMLSLDVGGLGPDQRDGLIAAIREGGLTVPGVSDVRIVMT | 0.22 |
| HMELDREALSDGLRRLSQLLAEDDIESRTLFRELAPGLKEQLGDDAVEKLAGHISRYEFEQAGALLATSG | -0.61 |
| HMAVETYRVKKSDTMQTIADRFGLSVEELLEYNQAYKTRELRARDILIIPSRKERKKLQQQKAQAAAQVVQ | 0.404 |
| HMDIYKKFIIPATYFGSRLDHVLSELLPELSRSKIQNMIKQNLVMINGNHAAQKQKVVGDEEIIIKDI | -0.089 |
| HMTGSLRIKHKTYYMLFSWKDESGQWRQKSESTGIPERGGKRKAQEMLNTRLEELQLQSTASL | 0.199 |
| HMLNEWIDYIDEHIKEELTAKNLATVFGYSERHFRNVFQIYYDIKLNDYIRRRKLYFAAQELKKG | -1.76 |
| HMRIETLESLANRLAYKAYRTGRKVELEPMNPFERRVIHTALQNSKYATTESEGEDMNRHIVIVPKEGG | 0.247 |
| HMGGALSPDFGWLAMIDPDEGRAITLYDIASGEAIAVLDTHEARVAALAWSPDGTRLASGDQNGLIVQWEI | -1.43 |
| HMATGGKIYIGMNDNGKVVGVSDADKLLEDIPNKVRDVLGIIVDVNLLEENGLKYIEIDVPPYSN | -0.477 |
| HMSQVLVRINQDLNIRSGPGAQYDIIAVYRSGAIASVIGTYNNWYKVNFELDSKSYTGWINGTFTSR | -0.245 |
| HMAEDLRTLDGIDEDLLRDLAQAGITTRDGLAELSIDELREITGVEPGEAEKIILAARAHWFETDE | -1.19 |
| HMRTVPEALLGRAYETAETAIVLEGLEAKRTDVFHPTIGNGTVIRLEPASGSQVSAGGVIEIFVSKGTETI | -1.31 |
| HMGSTYGISRVDNETSRTHGWLVTIQRRGVIYRKHFSDGVFGGKQRSFAAAKEYRDEVIAAHP | -0.00453 |
| HMSFSTHHEYYIYNLAVDMRKGYDGLSGLVVNELGRQPWDGSVYVFFNTMRDKVKLLVWDTDGYVIYSKR | -0.505 |
| HMKSLDDVISKFRPTGSENKIDFRKRVISEIHAQGFFKIKGSVNHVAKALGVTRYTVYNYLDKLND | ≥ 0.43 |
| HMFMVAGHLSEKNGYFYAVINYNDSLGNRKTKWMSTGLTVKGNKKRAEAILAEKRRTFQPDEPV | 0.129 |
| HMRKGDDRLRAQVDEYISKQGNNTFNYKQVAHAINATSPISQRAVALYLAELAFDGDLLETAPGRYKSPSR | 0.191 |
| HMAGTELASIKEIQSLVDRSEEALSARNFFWPKDKSESMLLSFRNMFSRLKLTKMDVQIFHGIFKVMEKS | 0.0341 |
| HMSQSDLASAIGARVTIRLREASGGFRDIVGVLQRFGSGYGELINSKGEALTFSESEIAIWREVKA | 0.361 |
| HMDKNNLHSVLQDVPGIGPKRMKELMRAFGSVEGMKKAGLEELAAVKGMNHKAAEALIQFFR | 0.297 |
| HMQASPADLLSDRELEVFQLTGEWKTTRQIAQELHLSVKTIEYYREQIKRKLNLKSAAELTQHATAWVQRG | ≥ 0.43 |
| HMEMNDFETLRDMYLTGKIWNVGDIVEANGVRGKVIRKGTNYLSFVDEDNKVHKAWLYDIEE | -0.429 |
| HMDEYILTLDEVKELLKSKDYDDLKNVLKWSNKFQKDTIIQTAISEKVSDANVINIIKEITGQDITSLIV | -1.12 |
| HMINEDMTQSDRMELWGRLIDVVEDWLAEKGITEEDIPNEEREGVEDAAIIFGDDYDYLADRFSEVIGISR | -1.99 |
